Reference: patent publication US20230295308A1, “ANTAGONISTIC BIPARATOPIC ANTIBODIES THAT SPECIFICALLY BIND FIBROBLAST GROWTH FACTOR RECEPTOR 2 AND METHODS OF USING SAME” (The Broad Institute, Inc., priority 2020, published 2023)
Entries after “also recorded” stand apart in the source; their conditions may differ.

How the values were obtained:
[1] = target: FGFR2b alpha IIIb (Homo sapiens, UniProt P21802); assay: Surface Plasmon Resonance (SPR) binding; conditions: FGFR2b alpha IIIb antigen
Excerpt: FIGS. 17A-17C provide a schematic and tabular data related to assessments made to compare the avidity of biparatopic antibodies to that of their parental (bivalent monospecific) antibodies.
Surface Plasmon Resonance (SPR) as known in the art was used to determine the binding affinities of biparatopic antibodies. The SPR-based binding method involves immobilization of a ligand (antibody) on the surface of a sensor chip. The binding partner of interest or an analyte (FGFR2 ECD) flow through the flow channel. Different concentrations of an analyte flow over the ligand, and the interactions of ligand-analyte can be characterized. The SPR signal originates from changes in the refractive index of the […] at the surface of the sensor chip. The increase in mass associated with a binding event causes a proportional increase in the refractive index, which is observed as a change in response-resonance signal. In brief, for the experiments using the antibodies described herein, the SPR assay was carried out by immobilizing antibodies (used as […]) at a concentration ranging from 1-1000 nM and flow-through FGFR2b alpha IIIb antigen (used as […]). The antibody kinetic data for the interaction with FGFR2b alpha IIb antigen were fitted to the 2-state and 1-1 binding models using Biocore software. The mean and standard deviation KD values are derived from at least three independent runs.
Using SPR, the kinetics of 6 monospecific and 13 biparatopic antibodies for binding to a single antigen, FGFR2b alpha IIb, was measured so as to compare avidity of the biparatopic antibodies to their parental antibodies. Without wishing to be bound by theory, it was expected that the biparatopic antibodies would bind to the FGFR2 antigen more tightly than their parental antibodies and that the tighter binding biparatopic antibodies among the antibodies that were assessed would be more efficient in blocking FGFR2 dimerization (FIG. 17A), thereby leading to inhibition or blocking of constitutive FGFR2 signaling and/or oncogenic transformation. […]

[2] = target: FGFR2 on SNU-16 gastric cancer cell line with FGFR2 amplification (UniProt P21802); assay: FACS on SNU-16 cells, % cells with FITC+ against log antibody concentration; Kd printed in the legend box [cont.]
[3] = target: FGFR2b alpha IIIb antigen (UniProt P21802); assay: SPR (Biacore), antibody immobilized, FGFR2b alpha IIIb in flow
[4] = system: FGFR2-PHDGH fusion expressing BaF3 cells; assay: ligand stimulated (FGF10) growth of FGFR2-PHGDH fusion expressing BaF3 cells (FIG. 10); type: cell-based; conditions: FGF10 present
Experimental: FIG. 10 is a graph showing that antibodies C, D, E and F have activity against ligand stimulated growth of FGFR2-PHDGH fusion expressing BaF3 cells.
The growth of BaF3 cells expressing an FGFR2-PHDGH fusion was assayed in the presence of FGF ligand, FGF10. Antibodies C, D, E and F inhibited ligand stimulated growth of FGFR2-PHDGH fusion expressing BaF3 cells (FIG. 10). Based on the results reported herein above, antagonistic biparatopic antibodies are made using the FGFR2 antibody combinations shown in FIG. 11A. These combinations result in increased growth inhibition effects in oncogenic or cancer cells (e.g., transformed BaF3 cells) that overexpressed […]. Thus, antibodies that bind to epitopes have increased inhibitory and killing effects against cancer cells. Designs for antagonistic biparatopic antibodies are shown at FIGS. 11B and 11C. Advantageously, including complementary mutations in VH-VL and CH1-CL on one-half of the biparatopic antibody results in preferential heterodimeric pairing between two different chains rather than chains from the other half of the same antibody. Alternatively, a linker method is used to create scFab, scFv, or DuoBodies. In this method two antibody chains are each generated in different cells and mixed in vitro. Such methods are known in the art and described, for example, by K. Ding et al, March 2017, Appl. Microbiol. […]

[5] = system: BaF3 cells overexpressing FGFR2-PHGDH; assay: combination of BGJ398 and anti-FGFR2 bivalent antibody, isobolograms and Loewe scores (FIGS. 14, 15); type: cell-based; conditions: presence of FGF10, treated for 5 days
Excerpt: FIGS. 14B-14D provide isobolograms showing synergy between FGFR inhibitor and the anti-[…] bivalent antibody on the different days and supporting the results shown in FIG. 14A. FIG. 14B corresponds to 3 days after treatment with the BGJ398 inhibitor; FIG. 14C corresponds to 4 days after treatment with the BGJ398 inhibitor; and FIG. 14D corresponds to 5 days after treatment with the BGJ398 inhibitor. FIG. 14E provide Loewe scores showing synergy between the FGFR inhibitor and the anti-FGF2 bivalent antibody on the different days and supporting the results shown in FIG. 14A.
FIG. 15A presents charts showing synergy between the FGFR2 small molecule inhibitor BGJ398 and an anti-FGFR2 bivalent antibody (Antibody D) in the presence of FGF ligand (+FGF) in a cell-based assay using BaF3 cells overexpressing an FGFR2 fusion molecule (FGFR2-PHGDH) after 3, 4 and 5 days of treatment with the inhibitor and the antibody. […] FIGS. 15B-15D provide isobolograms showing synergy between the FGFR inhibitor and the anti-FGF2 bivalent antibody on the different days and supporting the results shown in FIG. 15A. FIG. 15B corresponds to 3 days after treatment with the BGJ398 inhibitor; FIG. 15C corresponds to 4 days after treatment with the BGJ398 inhibitor; and FIG. 15D corresponds to 5 days after treatment with the BGJ398 inhibitor. […]

Sequence of FGFR2b alpha IIIb (P21802 22-378 isoform P21802-3): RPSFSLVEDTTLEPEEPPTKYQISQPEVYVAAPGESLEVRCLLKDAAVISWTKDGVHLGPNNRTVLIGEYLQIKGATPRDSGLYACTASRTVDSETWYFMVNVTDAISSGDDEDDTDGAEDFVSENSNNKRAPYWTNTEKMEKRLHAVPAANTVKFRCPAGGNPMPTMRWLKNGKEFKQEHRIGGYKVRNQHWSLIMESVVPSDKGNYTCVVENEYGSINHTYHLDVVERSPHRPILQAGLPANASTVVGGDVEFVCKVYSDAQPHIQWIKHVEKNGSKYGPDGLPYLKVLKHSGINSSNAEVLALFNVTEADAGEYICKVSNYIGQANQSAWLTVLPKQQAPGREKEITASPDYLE

B1: 2B 1.3.12 (antibody, V domains shown)
VH: EVQLVESGGGLVQPGGSLRLSCAASGFPFTSTGISWVRQAPGKGLEWVGRTHLGDGSTNYADSVKGRFTISADTSKNTAYLQMNSLRAEDTAVYYCARTYGIYDTYDMYTEYVMDYWGQGTLVTVSS
VL: DIQMTQSPSSLSASVGDRVTITCRASQDVDTSLAWYKQKPGKAPKLLIYSASFLYSGVPSRFSGSGSGTDFTLTISSLQPEDFATYYCQQSTGHPQTFGQGTKVEIK
notes: the duobody scheme implies IgG1 with K409R or F405L; also called Antibody D; GE
For B1, which Kd [1] is on record?
The Kd was 0.99 nM.

And the Kd [2]?
The Kd was 1.78 nM.

And the Binding Stoichiometry [3]?
Its Binding Stoichiometry is 1.9.

What about the “inhibition of ligand stimulated growth of FGFR2-PHGDH fusion expressing BaF3 cells” value [4] of the same molecule?
Its value is “have activity; also recorded: inhibited”.

And the “synergy with BGJ398 in inhibiting FGFR2-PHGDH driven BaF3 cell growth” value [5]?
The value was “synergizes”.
